Laboratory results taken from article PMC12077149 (mBio, 2025).

Target: the molecule itself
Test: SEC; 24 mL Superdex-200, 150 mM NaCl, 50 mM Tris-HCl pH 8.0; MW estimated from a linear fit of MW standards

B1: 6×His-PqsE (wild type, P. aeruginosa) (enzyme)
chain: MLRLSAPGQLDDDLCLLGDVQVPVFLLRLGEASWALVEGGISRDAELVWADLCRWVADPSQVHYWLITHKHYDHCGLLPYLCPRLPNVQVLASERTCQAWKSESAVRVVERLNRQLLRAEQRLPEACAWDALPVRAVADGEWLELGPRHRLQVIEAHGHSDDHVVFYDVRRRRLFCGDALGEFDEAEGVWRPLVFDDMEAYLESLERLQRLPTLLQLIPGHGGLLRGRLAADGAESAYTECLRLCRRLLWRQSMGESLDELSEELHRAWGGQSVDFLPGELHLGSMRRMLEILSRQALPLD
notes: also called WT PqsE
  stoichiometry N: 2
